Data taken from the supplement of paper PMC9942255.
Where “and” joins values, the source holds several entries; their conditions need not be identical. Equal entries are not always repeated.

Test system: Bacillus subtilis DB104 (SP-AmyQ fusion secretion)
Test: AmyQ secretion efficiency, weighted average sort bin (1 = best secretion, 10 = worst) (bin number (weighted average, 1-10)); higher = lower secretion efficiency
Summary of the method: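 With fluorescein-starch as substrate, a B. subtilis DB104 library expressing mature AmyQ fused to designed signal peptides (integrated at amyE) was encapsulated at about 0.3 cells per ~65 nL alginate bead. After about 13 h at room temperature, beads were nile red stained, and occupied beads were sorted by large-particle flow cytometry into 10 equally populated bins by green/red fluorescence ratio. Illumina sequencing of the amplicons in each bin was used to calculate the secretion score, which is the read-frequency-weighted average bin number, normalised to beads per bin, with low-abundance sequences left out.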

Row | Sequence | AmyQ secretion efficiency
1 | MKQIRKKRKKFMLLAMTGQTALAKDV | 7.04
2 | MKRIRIPMKLALGAALTIAPLSFASAEEN | 4.57
3 | MKRLTLVCSIVFILRKLFYRLKIGTIPIQKLPVYKASAKTA | 6.99
4 | MKKGIIRFLLVSFVLFFALSTGITGVQDAPA | 6.75
5 | MKLSVKIAGVLTVAAAAMTAKMYATAAGN | 6.91
6 | MKKRLIGFLVLVPALIMSGITLQEANKK | 7.31
7 | MISKKLWISLLFALTLIFTMAFSNMSAQAAGK | 1.95
8 | MKKAAAVLLSLGLVFGFSYGAGHVAEADDD | 5.61
9 | MRPVFPLILSAVLFLSCFFGARQTEASARKR | 2.01
10 | MKKTSSFNFSSTAFLVFLSVVLVTTVFLVKQQESVAQAKQL | 2.65
11 | MTSSGFTVFLILLLMLTLVVAPKEKAEAASS | 1.98
12 | MKRLLSTLLIGIMLLITTILVSTLTFAPSAFAKQD | 1.3
13 | MKVPKTMLLSTAAGLLLSLDPTSVSAHYV | 3.57
14 | MKKRKRKILLSSALSFGMLISAVPALAAGT | 3.32
15 | MKKKLAAGLTASAIVGTTLVVTPSEAATI | 3.77
16 | MMTKSKLLLSCLALSTVFVATTIANAPTH | 5.2
17 | MLKKIALTLCPAIVGSLLFFTAPASVHVS | 6.13
18 | MKKIMIFLTSFMLLAMTGQTALAKDV | 3.4
19 | MHLIRAAGAVCLAVVLIAGCRFNEDQHQGEGENT | 6.63
20 | MKRITINIITMFIAAAVIKRRRRKKAEAAEK | 6.55
21 | MRGKSAVLLSLIMLIAGFLISFSFKK | 6.28
22 | MKQGKFSRYYKSLLMLTLVVAPKEKAEAASS | 6.74
23 | MKLAKRVSALTPSTTLAITMKAKEL | 6.37
24 | MFNRLFRVCFLAALIMAFTLPNSYYAQKP | 7.48
25 | MAIIIAIIAAVIVIAALITFNVRNRSPG | 7.6
26 | MKKRLIGFLVLVPALIMSGITLIEARKK | 7.62

Row | Sequence | AmyQ secretion efficiency
27 | MKKAFILSAAAAVGLFTFKRRQQASAKEL | 7.06
28 | MLTKRTTTSLLTIYIMLLGLIAWFPGAAQAEEK | 3.1
29 | MLKKKWMVGLLAGCLAAGGFSYNAFADEE | 6.94
30 | MAIIIAIIAANVRNASPG | 7.68
31 | MKKWIYVVLVLSIAGIGGFSVHWASS | 7.53
32 | MMKKLFHSTLRKLLFFSFFGVQPIHAKKQ | 7.14
33 | MRNLTKTSLLLAGLCTAAIQMVFVTHASAEES | 3.32 and 3.1
34 | MKKIWIGMLAAAVLLLRKRKKKSLADAA | 6.58
35 | MILANSVSALTPSTTLAITAKAKEL | 8.58
36 | MKRTWNVCLTALLSVLLVAGSVPFHAEAAPK | 2.29
37 | MKSKGSIMACLILFSFTITTFISVETISAFSN | 5.39
38 | MKKGIIRFLLVSFVLFFALSTGITGVQGAPA | 4.19
39 | MKLKSKYYKGCRSTSTVFVATTIANAPTH | 7.35
40 | MKKSQYFIVFICFFVLFSVHPIAQAAADS | 4.87
41 | MMKKLFHSTLIVLLFFSFFGVKRKIHAKKQ | 3.3
42 | MRHKIITFILAVVVIIIIRKRKKRRGGSEATSK | 4.98
43 | MKRMIVRMKRPSLIVCLAFSSFSASARAASE | 6.12
44 | MKKWMITIAMLILAGIALFVFISPLKSHKT | 6.27 and 6.6 and 6.11
45 | MMIKQCKRCKKRKVFGTTAAHAEET | 7.72
46 | MKKVSALTPSTTLAITAKAKEL | 6.89
47 | MKSKGSIMACLILFSFTITTFINTETISAFSD | 6.02
48 | MTMLRKIIGWILLLCIIPLFAFTVIPSGKEV | 8.07
49 | MRKKRVITCVMAASLTLGSLLAAAIASAKED | 5.2
50 | MTMLRKIIGWILLLCIIPLFAFTVIASPKEV | 7.22
51 | MKKSQYFRKRRCKRVLFSVHPIAAAAADS | 7.95
52 | MKVLLSALLLLLFAFEPSNSGKKL | 6.02

Row | Sequence | AmyQ secretion efficiency
53 | MKIRKILLSSALSFGMLRKRVPALAAGT | 6.53
54 | MKKRKITIAMLILAGIALFVFISPLKSHKT | 6.94
55 | MTMLRKIIGWILLLCIIPLFAFTVIASDKEV | 7.16
56 | MRSKKLWISLLFALTLIFTMAFSNMSDQAAGK | 2.84
57 | MKKVLMAFIICLSLILSVLAAPPSGAKAARR | 2.06
58 | MKKRKKKFFGPIILAFILFAGAIAIPS | 6.45
59 | MKKARRRKAAAAVGLFTFGGVQQASAKEL | 6.73
60 | MFFKKTVVSALSISALALSVSGVASAHEI | 3
61 | MKRKKMSGLLLVAVGFSFTQVMVHAGET | 6.25
62 | MKVLLSALLLLLFAFEPSKSGKKL | 6.03
63 | MNRLFMKASLVLFAVVFVFAVKGAPAKAETH | 1.75
64 | MRNLTKTSLLLAGLCTAAQMVFVTHASLEES | 3.72
65 | MKRFILVLSFLSIIVAYPIQVNASPM | 3.06
66 | MLKKIALTLCPAIVGSLLFFTAPASKHVS | 5.12
67 | MNKLKRLSMLTVMIASVFIFSSHALVAQY | 5.99
68 | MKKRFFGPIILAFILFAGAIHIPS | 5.21
69 | MKLRKVLTGSVLSLGLLVSASPAFATSD | 2.17
70 | MGGVFPLILSAVLFLSCFFGARQTEASASKR | 4.03
71 | MKVLLSALLLLLFAFEPSASEKKL | 5.89
72 | MKRLLVSLRVWMVFLMNWVTPDRKTQAAAVY | 6.81
73 | MAIIIAIIAAVIVIAALITFEDDEDDDRNASPG | 6.7
74 | MNFKKTVVSALSISALALSVSGVVSAHEI | 2.69
75 | MKKVLMAFIICLSLILTLTSVIFISVLAAPPSGAKAESV | 2.47
76 | MGRFSTAYLLLGILCSAAVFLIGAPSRALGAEV | 2.59
77 | MGMKKKLSLGVASAALGLALVGRRKRKKTWAAFN | 6.59
78 | MKNMSCKLKKSVTLFFSFLTIGPLAHAQNS | 3.34

Row | Sequence | AmyQ secretion efficiency
79 | MRMLWRSLALCGLALTLALPCAQAAEP | 2.19
80 | MKQGKFSVFLILLLMLTLVVRRRKKRKAEAASS | 7.96
81 | MKQIMIFLTSFMLLAMTGQTCLAKDV | 3.75
82 | MLKKKWMVGLLAGCLAAGGFSYNEFATEN | 6.42
83 | MLCVMMLLFSAIAEDEVSAQAKDQ | 6.57
84 | MRGKSAVLLSLIMLIAGFLIEFSFQM | 8.38
85 | MTKLKMLSMLTVMIASLFIFSSQALAKRK | 4.03
86 | MFNRLFRVCFLAALIMAFTLPNSDYAQKP | 6.44
87 | MKKRFSLIMMTGLLFGLTKKRAFAAEK | 6.54
88 | MAIIIAIIAAVIVIAALITFNVTNASPG | 7.21
89 | MRGKSAVLLSLIMLIAGFLISFDFQM | 6.6
90 | MRKVITCVMAASLTLGSLLPAGYATAKED | 3.88
91 | MRKSLITLGLASVIGTSSFLIPFTSKTASAETL | 2.73 and 5.9 and 4.16
92 | MKKRLIGFLVLVPALIMSGITLIEWNKK | 3.04
93 | MFKKHTISLLIIFLLASAVLAKPIEARKK | 2.26
94 | MTTAAAVLLSLGLVFGFSYGAGHVAEAKTK | 2.82
95 | MTKRGIQAFAGGIILATYLTDEDQAAAV | 7.21
96 | MFKKLLLATSALTFSLSLVLPLDGHYKAQEV | 6.94
97 | MLKKIALTLCPAIVGSLLFFTAPASRHVS | 6.05
98 | MNKLKRLSMLTVMIASVFIFSSHQLAAQY | 4.72
99 | MILKSKLLLSCLALSTVFVATTIANAPTH | 6.38
100 | MRPVFPLKRSAVLFLSCFFGARQTEASASKR | 8.12
101 | MTKKAWFLPLVCVLLISGWLAPAASASTQTT | 2.01
102 | MRNLTKTSLLLAGLCTAARRKKKKHASAEES | 7.09
103 | MTKWIVLFLVLIAAAISIFVYVSTGSEK | 2.48
104 | MKKRFSLIMMTGLLFGLTSPTFAAEK | 3.56

Row | Sequence | AmyQ secretion efficiency
105 | MFNRLFRVCFLAALIMAFTLPNSSYAQKP | 2.08
106 | MHLITAAGAVCLAVVLIAGCRFNEDQHQAEGENT | 5.34
107 | MGLGKKLSVAVAASFPGVQAAEG | 7.32
108 | MTGYYKVLTMCFLGLILFVPTALADNS | 1.69
109 | MGMKKKLSLGVASAALGLALVGKKRTWAAFN | 8.1
110 | MKKRLIGFLVLVPALIMSGITLIEDNKK | 7.79
111 | MKKVLMAFIICLSLILSTISSVLAAPPSGAKAESV | 2.8
112 | MKSKWMSGLLLVAVGFSFTQVMVHHGET | 6.33
113 | MIQKRKRTVSFRLVLMCTLLFVSLPITKTSAVNG [wt_amyQ] | 1.16
114 | MTKLKMLSMLTVMIASLFIFSSQALGVQY | 3.68
115 | MKKWIYVVLVLSIAGIGGKRKKKKVHAASS | 7.49
116 | MLTKRLLTIYIMLLGLIAWFPGAAQCEEK | 2.82
117 | MLNGIISFLLVSFVLFFALSTGITGVQAAPA | 3.09
118 | MKKQIITATTAVVLGSTLFAKKASAQSI | 6.18
119 | MRKKLKWLSFLLGFIILLFLFTFGFSNNDS | 5.5
120 | MKRIRIPMTLALGAALTIAPLSFASREEN | 6.16
121 | MVKKWLIMFAVMLGVLMTFTYSASAVGV | 1.93
122 | MRFTKVRRRRKKLGLAAVFPLTAQAEKA | 7.25
123 | MKKIWIGMLAAAVLLLMVPKVSLADAA | 3.23 and 2.34 and 3.08
124 | MRPVFPLILSAVLFLSCFFGARQTESSASKR | 3.91
125 | MKLSVKTRQKTTVAAAAMTAKMYATAKGN | 7.48
126 | MRFTKVVGFLSVLGLAAVFPLTASSAAQAEKA | 1.25
127 | MRFTKKKTFLSVLGLAAVFPLTAQAEKA | 3.64
128 | MKLAKRVSALTPSTTLAITSKAKEL | 8.31
